Reference: patent US20210198647

Columns and labels:
[1] = tested on: NlnA#2, NSC 523374, D,L-histidyl-D,L-histidine
[2] = tested on: NlnA#1, NSC 374121, L-histidyl-L-tyrosine

Substance | Emax, QFS (25 µM) hydrolysis [1] | Emax, QFS (25 µM) hydrolysis [2]
mouse brain-purified neurolysin | 258% (95% confidence intervals 232.7 to 283.8%) | 190% (95% confidence intervals 169.2 to 210.7%)
recombinant human neurolysin (R & D systems, product number 3814-ZN) | 214.3% (95% confidence intervals 205.7 to 222.9%) | 203.5% (95% confidence intervals 193.7 to 213.4%)
